Residue numbers refer to the chain shown, from its start.
T1: LZTR1-FLAG (human, UniProt Q8N653 1-840)
T1 construct: Expressed in HEK 293T, HeLa or U87 cells; used as cell lysate; also called LZTR1 wild type-FLAG; LZTR1 WT; not shown: FLAG tag at the C-terminus
T1 sequence (looked up): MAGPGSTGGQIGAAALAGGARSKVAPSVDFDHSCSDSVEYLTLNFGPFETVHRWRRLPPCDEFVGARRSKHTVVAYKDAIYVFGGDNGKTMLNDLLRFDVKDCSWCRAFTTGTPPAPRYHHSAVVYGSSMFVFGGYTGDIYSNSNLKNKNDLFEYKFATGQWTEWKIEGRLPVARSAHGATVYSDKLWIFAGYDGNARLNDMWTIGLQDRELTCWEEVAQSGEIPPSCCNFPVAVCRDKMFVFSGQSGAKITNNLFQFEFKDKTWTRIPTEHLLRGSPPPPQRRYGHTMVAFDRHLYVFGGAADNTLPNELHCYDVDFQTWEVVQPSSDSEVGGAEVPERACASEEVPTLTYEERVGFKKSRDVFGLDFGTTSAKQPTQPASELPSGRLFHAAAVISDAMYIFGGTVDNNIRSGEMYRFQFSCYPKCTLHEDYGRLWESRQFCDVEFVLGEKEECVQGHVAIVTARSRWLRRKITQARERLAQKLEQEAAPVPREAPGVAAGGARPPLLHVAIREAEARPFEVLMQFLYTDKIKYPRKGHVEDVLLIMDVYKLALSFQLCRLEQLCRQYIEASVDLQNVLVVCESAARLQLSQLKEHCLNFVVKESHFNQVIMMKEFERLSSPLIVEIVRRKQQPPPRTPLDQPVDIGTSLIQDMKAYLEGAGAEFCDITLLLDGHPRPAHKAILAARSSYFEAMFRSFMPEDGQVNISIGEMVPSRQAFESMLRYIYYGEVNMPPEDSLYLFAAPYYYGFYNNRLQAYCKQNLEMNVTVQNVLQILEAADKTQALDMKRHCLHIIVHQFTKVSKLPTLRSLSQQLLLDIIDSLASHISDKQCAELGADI

T2: LZTR1 R810W-FLAG (human, UniProt Q8N653 1-840)
T2 construct: Stably expressed in U87 cells by lentivirus; also called LZTR1-FLAG-R810W; LZTR1 RW; not shown: FLAG tag
T2 sequence (looked up): T1 sequence (looked up) with R810W

B1: APPL1 (other, human, UniProt Q9UKG1 1-709, looked up)
chain: MPGIDKLPIEETLEDSPQTRSLLGVFEEDATAISNYMNQLYQAMHRIYDAQNELSAATHLTSKLLKEYEKQRFPLGGDDEVMSSTLQQFSKVIDELSSCHAVLSTQLADAMMFPITQFKERDLKEILTLKEVFQIASNDHDAAINRYSRLSKKRENDKVKYEVTEDVYTSRKKQHQTMMHYFCALNTLQYKKKIALLEPLLGYMQAQISFFKMGSENLNEQLEEFLANIGTSVQNVRREMDSDIETMQQTIEDLEVASDPLYVPDPDPTKFPVNRNLTRKAGYLNARNKTGLVSSTWDRQFYFTQGGNLMSQARGDVAGGLAMDIDNCSVMAVDCEDRRYCFQITSFDGKKSSILQAESKKDHEEWICTINNISKQIYLSENPEETAARVNQSALEAVTPSPSFQQRHESLRPAAGQSRPPTARTSSSGSLGSESTNLAALSLDSLVAPDTPIQFDIISPVCEDQPGQAKAFGQGGRRTNPFGESGGSTKSETEDSILHQLFIVRFLGSMEVKSDDHPDVVYETMRQILAARAIHNIFRMTESHLLVTCDCLKLIDPQTQVTRLTFPLPCVVLYATHQENKRLFGFVLRTSSGRSESNLSSVCYIFESNNEGEKICDSVGLAKQIALHAELDRRASEKQKEIERVKEKQQKELNKQKQIEKDLEEQSRLIAASSRPNQASSEGQFVVLSSSQSEESDLGEGGKKRESEA
B2: ATG13 (other, human, UniProt O75143 1-517, looked up)
chain: METDLNSQDRKDLDKFIKFFALKTVQVIVQARLGEKICTRSSSSPTGSDWFNLAIKDIPEVTHEAKKALAGQLPAVGRSMCVEISLKTSEGDSMELEIWCLEMNEKCDKEIKVSYTVYNRLSLLLKSLLAITRVTPAYRLSRKQGHEYVILYRIYFGEVQLSGLGEGFQTVRVGTVGTPVGTITLSCAYRINLAFMSTRQFERTPPIMGIIIDHFVDRPYPSSSPMHPCNYRTAGEDTGVIYPSVEDSQEVCTTSFSTSPPSQLSSSRLSYQPAALGVGSADLAYPVVFAAGLNATHPHQLMVPGKEGGVPLAPNQPVHGTQADQERLATCTPSDRTHCAATPSSSEDTETVSNSSEGRASPHDVLETIFVRKVGAFVNKPINQVTLTSLDIPFAMFAPKNLELEDTDPMVNPPDSPETESPLQGSLHSDGSSGGSSGNTHDDFVMIDFKPAFSKDDILPMDLGTFYREFQNPPQLSSLSIDIGAQSMAEDLDSLPEKLAVHEKNVREFDAFVETLQ
B3: ATF6B (other, human, UniProt Q99941 2-703, looked up)
chain: AELMLLSEIADPTRFFTDNLLSPEDWGLQNSTLYSGLDEVAEEQTQLFRCPEQDVPFDGSSLDVGMDVSPSEPPWELLPIFPDLQVKSEPSSPCSSSSLSSESSRLSTEPSSEALGVGEVLHVKTESLAPPLCLLGDDPTSSFETVQINVIPTSDDSSDVQTKIEPVSPCSSVNSEASLLSADSSSQAFIGEEVLEVKTESLSPSGCLLWDVPAPSLGAVQISMGPSLDGSSGKALPTRKPPLQPKPVVLTTVPMPSRAVPPSTTVLLQSLVQPPPVSPVVLIQGAIRVQPEGPAPSLPRPERKSIVPAPMPGNSCPPEVDAKLLKRQQRMIKNRESACQSRRKKKEYLQGLEARLQAVLADNQQLRRENAALRRRLEALLAENSELKLGSGNRKVVCIMVFLLFIAFNFGPVSISEPPSAPISPRMNKGEPQPRRHLLGFSEQEPVQGVEPLQGSSQGPKEPQPSPTDQPSFSNLTAFPGGAKELLLRDLDQLFLSSDCRHFNRTESLRLADELSGWVQRHQRGRRKIPQRAQERQKSQPRKKSPPVKAVPIQPPGPPERDSVGQLQLYRHPDRSQPAFLDAIDRREDTFYVVSFRRDHLLLPAISHNKTSRPKMSLVMPAMAPNETLSGRGAPGDYEEMMQIECEVMDTRVIHIKTSTVPPSLRKQPSPTPGNATGGPLPVSAASQAHQASHQPLYLNHP
B4: ARMCX2 (other, human, UniProt Q7L311 1-632, looked up)
chain: MSRVRDAGCVAAGIVIGAGAWYCVYKYTRGRDQTKKRMAKPKNRAVAGTGARARAGLRAGFTIDLGSGFSPPTPVRAEAEDRAQDEASALDTVGAEAVAPAASSAEAQSGAGSQAQEADGAGVGPKAESVVGAAMASAIAPPPGVTEALGAAEAPAMAGAPKVAEAPREAETSRAAVPPGTVVPTEAAAPTEVTEGPGVAAPTKVAEAPGVASPTEAAEAPVPATPTGAAAPTGAAESPGTSGSPRTAVVPGTSAAKKATPGAHTGAIPKATSATGAVPKGGGKGVTRSRNGGKGKGKKSKVEVDELGMGFRPGDGAAAAAAASANGGQAFLAEVPDSEEGESGWTDTESDSDSEPETQRRGRGRRPVAMQKRPFPYEIDEILGVRDLRKVLALLQKSDDPFIQQVALLTLSNNANYSCNQETIRKLGGLPIIANMINKTDPHIKEKALMAMNNLSENYENQGRLQVYMNKVMDDIMASNLNSAVQVVGLKFLTNMTITNDYQHLLVNSIANFFRLLSQGGGKIKVEILKILSNFAENPDMLKKLLSTQVPASFSSLYNSYVESEILINALTLFEIIYDNLRAEVFNYREFNKGSLFYLCTTSGVCVKKIRALANHHDLLVKVKVIKLVNKF
B5: ATF6 (other, human, UniProt P18850 1-670, looked up)
chain: MGEPAGVAGTMESPFSPGLFHRLDEDWDSALFAELGYFTDTDELQLEAANETYENNFDNLDFDLDLMPWESDIWDINNQICTVKDIKAEPQPLSPASSSYSVSSPRSVDSYSSTQHVPEELDLSSSSQMSPLSLYGENSNSLSSAEPLKEDKPVTGPRNKTENGLTPKKKIQVNSKPSIQPKPLLLPAAPKTQTNSSVPAKTIIIQTVPTLMPLAKQQPIISLQPAPTKGQTVLLSQPTVVQLQAPGVLPSAQPVLAVAGGVTQLPNHVVNVVPAPSANSPVNGKLSVTKPVLQSTMRNVGSDIAVLRRQQRMIKNRESACQSRKKKKEYMLGLEARLKAALSENEQLKKENGTLKRQLDEVVSENQRLKVPSPKRRVVCVMIVLAFIILNYGPMSMLEQDSRRMNPSVSPANQRRHLLGFSAKEAQDTSDGIIQKNSYRYDHSVSNDKALMVLTEEPLLYIPPPPCQPLINTTESLRLNHELRGWVHRHEVERTKSRRMTNNQQKTRILQGALEQGSNSQLMAVQYTETTSSISRNSGSELQVYYASPRSYQDFFEAIRRRGDTFYVVSFRRDHLLLPATTHNKTTRPKMSIVLPAININENVINGQDYEVMMQIDCQVMDTRILHIKSSSVPPYLRDQQRNQTNTFFGSPPAATEATHVVSTIPESLQ

Each binder was assayed against T1, LZTR1-FLAG (assay: IP/MS, LZTR1 wild type-FLAG, U87).
Description: (§1) Lysates were immunoprecipitated with FLAG affinity matrix and eluted with FLAG peptide. […] Protein gel slices were excised and in-gel digestion performed as previously described (83), with minor modifications. Gel slices were washed with 1:1 A cetonitrile and 100 mM ammonium bicarbonate for 30 min then dehydrated with 100% acetonitrile for 10 min until shrunk. The excess acetonitrile was then removed and the slices dried in speed-vacuum at room temperature for 10 min. Gel slices were reduced with 5 mM DTT for 30 min at 56° C. in an air thermostat, cooled down to room temperature, and alkylated with 11 mM IAA for 30 min with no light. Gel slices were then washed with 100 mM of ammonium bicarbonate and 100% acetonitrile for 10 min each. Excess acetonitrile was removed and dried in a speed-vacuum for 10 min at room temperature and the gel slices were re-hydrated in a solution of 25 ng/μl trypsin in 50 mM ammonium bicarbonate for 30 min on ice and digested overnight at 37° C. in an air thermostat. Digested peptides were collected and further extracted from gel slices in extraction buffer (1:2 ratio by volume of 5% formic acid:acetonitrile) at high speed, shaking in an air thermostat. The supernatants from both extractions were combined and dried in a speed-vacuum. Peptides were dissolved in 3% acetonitrile/0.1% formic acid. Desalted peptides were injected in an EASY-Spray™ PepMap™ RSLC C18 50 cm×[…] column (Thermo Scientific) connected to an Orbitrap Fusion™ Tribrid™ (Thermo Scientific) as described in “Global ubiquitylation enrichment” section. The following modifications were used for protein identification and quantification: oxidation of methionine (M), acetylation of the protein N-terminus, and deamination for asparagine or glutamine (NQ). Results obtained from MaxQuant were assembled in Scaffold for data visualization.

binding result	Binder
binds	B1
binds	B2
binds	B3
binds	B4
binds	B5

The binders below were run against T2, LZTR1 R810W-FLAG (assay: IP/MS, LZTR1 R810W-FLAG, U87).
Description: as §1

binding result	Binder
binds	B1
binds	B2
binds	B3
binds	B4
binds	B5
